US20220098305A1 (Hoffmann-La Roche, published 2022)
Where two headings read alike, the source gives them in different places.

T1: human ICOS (human, UniProt Q9Y6W8 21-199)
T1 construct: The cell that carries it is named under assay; also called huICOS; CD278
T1 sequence: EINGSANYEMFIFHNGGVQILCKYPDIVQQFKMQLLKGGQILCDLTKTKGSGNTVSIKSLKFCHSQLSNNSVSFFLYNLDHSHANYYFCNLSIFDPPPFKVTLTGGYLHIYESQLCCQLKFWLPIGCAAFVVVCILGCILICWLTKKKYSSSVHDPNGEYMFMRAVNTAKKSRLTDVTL

T2: cynomolgus ICOS (cynomolgus, UniProt Q9Y6W8 21-195 (human entry))
T2 chain: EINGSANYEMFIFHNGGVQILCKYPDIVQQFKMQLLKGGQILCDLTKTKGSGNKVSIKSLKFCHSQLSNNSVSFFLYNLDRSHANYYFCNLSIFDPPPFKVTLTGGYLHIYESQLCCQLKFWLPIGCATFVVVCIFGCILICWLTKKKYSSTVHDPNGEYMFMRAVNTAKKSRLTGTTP


What was measured:
human ICOS [1] = biological target: T1, human ICOS; assay: flow cytometry, MFI(ICOSL+anti-ICOS)/MFI(anti-ICOS only)*100 at 120 nM; competitor ICOSL
Experimental: (§1) Briefly, cells were harvested, counted, checked for viability and re-suspended at 1 million cells per ml in FACS buffer (PBS with 0.1% BSA). […] Cells were washed again twice with cold PBS 0.1% BSA and then re-incubated and fixed for 20 min at 4° C. in the dark, using 75 μl of 1% PFA in FACS buffer per well. Fluorescence was analyzed by FACS using a FACS Fortessa (Software FACS Diva. Data was analyzed using GraphPadPrism 7.

human ICOS [2] = biological target: T1, human ICOS; assay: flow cytometry, ICOS+ CHO cells, 120 nM anti-ICOS IgG pre-bound, then ICOSL (competitor) 120 nM
Experimental: as §1

human ICOS [3] = biological target: T1, human ICOS; assay: flow cytometry, SR cells
Experimental: (§2) Briefly, suspension cells were harvested, counted, checked for viability and re-suspended at 1 million cells per ml in FACS buffer (PBS with 0.1% BSA). […] The staining was fixed for 20 min at 4° C. in the dark, using 75 μl of 1% PFA in FACS buffer per well.
(§3) In addition, binding of the above molecules to human SR cells (ATCC® CRL-2262) was performed as described above apart from the following modifications: SR cells were re-suspended at 2 million cells per ml in FACS buffer (BD).
(§4) Fluorescence was analyzed by FACS using a FACS Fortessa (Software FACS Diva). Binding curves and EC50 values were obtained using GraphPadPrism 7.

human ICOS [4] = biological target: T1, human ICOS; assay: flow cytometry on SR cells expressing human ICOS, PE-labelled secondary antibody, MFI
Experimental: as §2, §3, §4

[5] = biological target: T3, recombinant monomeric human ICOS Fc(kih) Avi tag (human, UniProt P0DOX5 223-449 = IgG part, biotin on the Avi tag in the ligand-blocking and the SPR competition assays); assay: SPR (Biacore T200, 25 C), antibody captured on anti-rabbit Fc, ICOS Fc(kih) 7.5-600 nM as analyte, 1:1 Langmuir fit
T3 construct: also called recombinant human ICOS; biotinylated human ICOS Fc(kih)
Experimental: All SPR experiments were performed on a Biacore T200 at 25° C. with HBS-EP as running buffer (0.01 M HEPES pH 7.4, 0.15 M NaCl, 3 mM EDTA, 0.005% Surfactant P20, Biacore, Freiburg/Germany).
Setup 1: Anti-rabbit Fc antibody (Jackson ImmunoResearch, Cambridgeshire/UK) was directly coupled on a CM5 chip at pH 4.5 using the standard amine coupling kit (Biacore, Freiburg/Germany). The immobilization level was approximately 9000 RU. […] The dissociation was monitored for 720 seconds. Bulk refractive index differences were corrected for by subtracting the response obtained on reference flow cell.

[6] = biological target: T3, recombinant monomeric human ICOS …; assay: SPR competition on human ICOS Fc(kih); second injection 100 nM; competitor (row): Molecule 14
Experimental: (§5) Immobilization levels up to 600 resonance units (RU) were used. […] Bulk refractive index differences were corrected for by subtracting the response obtained on reference flow cell.
(§6) The SPR experiments were performed on a Biacore T200 at 25° C. with HBS-EP as running buffer (0.01 M HEPES pH 7.4, 0.15 M NaCl, 3 mM EDTA, 0.005% Surfactant P20, Biacore, Freiburg/Germany).

human ICOS [7] = biological target: T1, human ICOS; assay: flow cytometry, CHO cells expressing human ICOS
Experimental: as §2, §4

human ICOS [8] = biological target: T1, human ICOS; assay: flow cytometry, ICOS+ CHO cells, 120 nM anti-ICOS IgG, no ICOSL
Experimental: as §1

[9] = biological target: T3, recombinant monomeric human ICOS …; assay: SPR competition on human ICOS Fc(kih); second injection 100 nM; competitor (row): Molecule 18
Experimental: as §5, §6

human ICOS [10] = biological target: T1, human ICOS; assay: cell-based or functional assay
human ICOS [11] = biological target: T1, human ICOS; assay: flow cytometry on CHO cells stably expressing human ICOS, PE-labelled secondary antibody, median fluorescence intensity (MFI)
Experimental: as §2, §4

[12] = biological target: T3, recombinant monomeric human ICOS …; assay: SPR competition on human ICOS Fc(kih); second injection 100 nM; competitor (row): Molecule 8
Experimental: as §5, §6

[13] = biological target: T3, recombinant monomeric human ICOS …; assay: SPR competition on human ICOS Fc(kih); second injection 100 nM; competitor (row): Molecule 20
Experimental: as §5, §6

cynomolgus ICOS [14] = biological target: T2, cynomolgus ICOS; assay: flow cytometry, activated cynomolgus PBMCs, CD4+ subset
Experimental: as §2
(§7) Briefly, cynomolgus PBMCs were activated for 48 hours using Dynabeads™ Human T-Activator CD3/CD28 (Thermo Fischer #11131D) according to manufacturer instruction and stored in RPMI1640 medium containing 10% FCS and 1% Glutamax (Gibco 35050061) at 37° C., in a humidified incubator until subsequent binding experiment was performed, as described above.

human ICOS [15] = biological target: T1, human ICOS; assay: flow cytometry, CHO cells expressing human ICOS; remark: listed apart in the source
Experimental: as §2
(§8) Fluorescence was analyzed by FACS using a FACS Fortessa (Software FACS Diva). Binding curves and EC₅₀ values were obtained using GraphPadPrism 7.

human FAP [16] = biological target: T4, human FAP (human, UniProt Q12884 1-760); assay: flow cytometry, NIH/3T3-huFAP clone 19 cells
T4 construct: also called hu FAP
Experimental: as §2, §8

cynomolgus ICOS [17] = biological target: T2, cynomolgus ICOS; assay: flow cytometry, activated cynomolgus PBMCs, CD8+ subset
Experimental: as §2, §7

human FAP [18] = biological target: T4, human FAP; assay: flow cytometry, NIH/3T3-huFAP clone 19 cells; remark: listed apart in the source
human ICOS [19] = biological target: T1, human ICOS; assay: flow cytometry on SR cells expressing human ICOS, geometric MFI
human ICOS [20] = biological target: T1, human ICOS; assay: flow cytometry, SR cells; remark: listed apart in the source

Row | Binder | Relative Binding (%) (human ICOS [1]) | MFI (A488), IgG + ICOSL (human ICOS [2]) [MFI] | EC50 (human ICOS [3]) [pM] | EC50 (read off the curve) (human ICOS [4]) [nM] | Kd [5] [nM] | koff [5] [s⁻¹] | kon [5] [M⁻¹ s⁻¹] | t1/2 [5] [min] | binding of the second injection (0 = no binding; 1 = binding) [6] | EC50 (human ICOS [7]) [pM] | MFI (A488), IgG only (human ICOS [8]) [MFI] | binding of the second injection (0 = no binding; 1 = binding) [9] | EC50 of activation of Jurkat-NFAT reporter cell line (luminescence) (human ICOS [10]) [nM] | EC50 (read off the curve) (human ICOS [11]) [nM] | EC50 (cynomolgus ICOS [14]) [nM] | EC50 (human ICOS [15]) [nM] | EC50 (human FAP [16]) [nM] | EC50 (cynomolgus ICOS [17]) [nM] | also measured
1 | Molecule 20 (rbIgG of 1143) (antibody, V domains shown, Rabbit IgG format; also called ICOS (1143); clone 1143) VH: QSLEESGGDLVKPGASLTLTCKASGFDFSSAYDMCWVRQAPGKGLEWIGCVYYGDGITYYATWAKGRFTISKTSSTTVPLQMTSLTAADTATYFCARGAFLGSSYYLSLWGQGTLVTVSS VL: AIDMTQTPASVEAAVGGTVTINCQASENIYNWLAWYQQKPGQPPKLLIYDASKLASGVPSRFSASGSGTQFTLTISAVECADAATYYCQQAYTYGNIDNAFGGGTEVVVSG | 100 | 6340 | 0.4 | ~0.4 | 0.1 | 2.3e-05 | 170000 | 498 | 0 | 0.3 | 6320 | 1 | 0.02 | ~0.3 | – | – | – | – | binding of the second injection (0 = no binding; 1 = binding) [12]: 0
2 | Molecule 8 (rbIgG of 1167) (antibody, V domains shown, Rabbit IgG format, from transgenic rabbit; also called ICOS (1167); clone 1167) VH: EVRLLESGGGLVQPGGSLRLSCAASGFTFNTYAVHWVRQAPGKGLEWVSGIGGSGVRTYYADSVKGRLTISRDNSKNTLYLQMNSLRAEDTAIYFCAKDIYVADFTGYAFDIWGQGTMVTVSS VL: DIQMTQSPSSVSASVGDRVTITCRASQGINNFLAWYQQKPGKAPKLLIYDASSLQSGVPSRFAGSGSGTDFTLTISSLQPEDFATYYCQQYNFYPLTFGGGTMVEIKR | 98.2 | 7660 | 1.13 | ~1 | 76 | 0.0061 | 81000 | 1.9 | 0 | 0.69 | 7800 | 1 | 0.13 | ~0.7 | – | – | – | – | binding of the second injection (0 = no binding; 1 = binding) [13]: 0
3 | Molecule 19, bispecific 2+1 anti-ICOS (1138)/anti-FAP (4B9) huIgG1 P329GLALA kih (bispecific antibody) heavy 1: QSLEESGGDLVKPGASLTLTCTASGFDLSSYYYMSWVRQAPGKGLEWIASIYADIYGGTTHYASWAKGRFTISKTSSTTVTLQMTSLTAADTATYFCAREDGSRYGGSGYYNLWGPGTLVTVSSASTKGPSVFPLAPSSKSTSGGTAALGCLVKDYFPEPVTVSWNSGALTSGVHTFPAVLQSSGLYSLSSVVTVPSSSLGTQTYICNVNHKPSNTKVDKKVEPKSCDKTHTCPPCPAPEAAGGPSVFLFPPKPKDTLMISRTPEVTCVVVDVSHEDPEVKFNWYVDGVEVHNAKTKPREEQYNSTYRVVSVLTVLHQDWLNGKEYKCKVSNKALGAPIEKTISKAKGQPREPQVCTLPPSRDELTKNQVSLSCAVKGFYPSDIAVEWESNGQPENNYKTTPPVLDSDGSFFLVSKLTVDKSRWQQGNVFSCSVMHEALHNHYTQKSLSLSPGGGGGSGGGGSGGGGSGGGGSEIVLTQSPGTLSLSPGERATLSCRASQSVTSSYLAWYQQKPGQAPRLLINVGSRRATGIPDRFSGSGSGTDFTLTISRLEPEDFAVYYCQQGIMLPPTFGQGTKVEIK heavy 2: not shown light: ALVMTQTPSSVSAAVGGTVTINCQASQNIYSNLAWYQQKPGQPPKLLIYAASYLTSGVSSRFKGSGAGTQFTLTISGVESADAATYYCQQGHTTDNIDNAFGGGTEVVVKRTVAAPSVFIFPPSDEQLKSGTASVVCLLNNFYPREAKVQWKVDNALQSGNSQESVTEQDSKDSTYSLSSTLTLSKADYEKHKVYACEVTHQGLSSPVTKSFNRGEC | – | – | – | – | – | – | – | – | – | – | – | – | – | – | 13.5 | 5.44 | 6.16 | 14 | –
4 | Molecule 22, bispecific 2+1 anti-ICOS (1143v2)/anti-FAP (4B9) huIgG1 P329GLALA kih (bispecific antibody) heavy 1: QSLEESGGDLVKPGASLTLTCKASGFDFSSAYDMSWVRQAPGKGLEWIGVIYYGDGITYYATSVKGRFTISKTSSTTVPLQMTSLTAADTATYFCARGAFLGSSYYLSLWGQGTLVTVSSASTKGPSVFPLAPSSKSTSGGTAALGCLVKDYFPEPVTVSWNSGALTSGVHTFPAVLQSSGLYSLSSVVTVPSSSLGTQTYICNVNHKPSNTKVDKKVEPKSCDKTHTCPPCPAPEAAGGPSVFLFPPKPKDTLMISRTPEVTCVVVDVSHEDPEVKFNWYVDGVEVHNAKTKPREEQYNSTYRVVSVLTVLHQDWLNGKEYKCKVSNKALGAPIEKTISKAKGQPREPQVCTLPPSRDELTKNQVSLSCAVKGFYPSDIAVEWESNGQPENNYKTTPPVLDSDGSFFLVSKLTVDKSRWQQGNVFSCSVMHEALHNHYTQKSLSLSPGGGGGSGGGGSGGGGSGGGGSEIVLTQSPGTLSLSPGERATLSCRASQSVTSSYLAWYQQKPGQAPRLLINVGSRRATGIPDRFSGSGSGTDFTLTISRLEPEDFAVYYCQQGIMLPPTFGQGTKVEIK heavy 2: not shown light: AIDMTQTPASVEAAVGGTVTINCQASENIYNWLAWYQQKPGQPPKLLIYDASKLASGVPSRFSASGSGTQFTLTISAVESADAATYYCQQAYTYGNIDNAFGGGTEVVVSRTVAAPSVFIFPPSDEQLKSGTASVVCLLNNFYPREAKVQWKVDNALQSGNSQESVTEQDSKDSTYSLSSTLTLSKADYEKHKVYACEVTHQGLSSPVTKSFNRGEC | – | – | – | – | – | – | – | – | – | – | – | – | – | – | 6.53 | 2.19 | 4.68 | 8.34 | EC50 (human FAP [18]): 3.24 pM; EC50 (read off the curve) (human ICOS [19]): ~1 nM; EC50 (human ICOS [20]): 1.17 pM
